The values that follow come from the nanobody polyreactivity screen of Harvey et al. (2022).

This data set in a line: yeast display, Sf9 membrane polyspecificity reagent, FACS + sequencing; frameworks hold sequencing errors. In outline:
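Genes from sorted yeast were amplified by colony PCR, read by MiSeq 2 × 250 sequencing and filtered on CDR length. These cells carried a synthetic nanobody library in Saccharomyces cerevisiae BJ5465 and were sorted by FACS into low and high (top ~1%) gates on anti-HA and streptavidin fluorescence. Polyreactivity is labelled according to the gate of origin.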
For the sequence “QVLLQESGGGLVLAGGSLRLGCAASGTISPAYYMGRYHQAPGKEREFVAAITYGTNTYYADSVKGRFTISRDNAKYTVYLQMHSLKPEDTAVYYCSATAGYNGAHDYWGQGTQVTVSS”, the “polyreactivity (PSR sort gate)” value is reported as “low polyreactivity”.
For “QVLLQESGGGLVQAGGSLRLSCAAIGTISTDIRMGWYRLAPGKEREFVASIDGCSTTYYADSVTGRFTISRDNAKNTVYLQMNSLKPEDTAMFYCAAREATEFYLYYWGQGTQVTVSS” the value was “low polyreactivity”; for “QVLLQESGGRLVQAGGSLRLGCEPSGTISPAYYMGRYHQAPGKEREFVAAITYGTNTYYADSVKGRCTISRDIAKNTVYLQMNSLKPEDSAVYYCSATAGYNGAHDYCGQGTQVTVSS”, “low polyreactivity”; for “QVLLVESGGGIVQAGGSLRLSCAASGIIFYVNAMGWYRQAPGKERELVAAITFGGDSTYYADSVKGRFTISRDNAKNTVYLQMNSLKPEDTAVYYCATDGDPAYPEMEYWGQGTQVTVSS”, “low polyreactivity”.
The value for “QVLLVESGGGLVQAGGSLRLSCAASGFIFFKYAMGWYRQAPGKEREFVAAISKSGTSTYYADSVKGRFTISRDNAKNTVYLQLNILKPEDTAVYDCAARYGRGSAYPEYDYWGQGTQVTVSS” was “high polyreactivity”; that for “QVLLVESGGGLVQAGGSLRLSCAASGFIFPYNAMGWYRQAPGKERELVASISGSGRTNYADSVKGRFTISRDNAKNTVYLQMNSLKPEDTAVYYCNKRWYVQKGYDYWGQGTQVTVSS” was “high polyreactivity”.
Consider “QVLLVESGGGLVQAGGSLRLSCAASGRTFYWYAMGWYRQAPGKERELVAGISSGGGTYYADSVKGRFTISRDNAKNTVYLQMNSLKPEDTAVYYCAAASENIWVWQEYIEYDYWGQGTQVTVSS”, for which the “polyreactivity (PSR sort gate)” value is recorded as “low polyreactivity”.
For “QVLLVESGGGLVQAGGSLRLSCAASGSIFWGYDMGWYRQAPGKDSELVAVISWSTTSTYFADSVKGRFTISRDNANNTVYLLMNSLKAEDTAVYYCNSEAYQYWEFDYWGQGTQVTVSS” the value was “low polyreactivity”; for “QVLLVESGGGLVQAGGSLRLSCAASGSTFNYNAMGWYRQAPGKERELVAVITSGGRTNYADSVKGRFTISRDNAKNTVYLQMNSLKPEDTAVYSCNAEHVSYHFNLKYSGESWGQGTQVTVSS”, “low polyreactivity”; for “QVLLVESGGGLVQAGGSLRLSCAASGSTLYDYAMGWYRQAPGKETELVAAINGSGGSTYYADSVKGRFTISRDNAKNTVYLQMNSLKPEDTAVYYCNAKRYGFFYWQGDYCGQGTQVTVSS”, “low polyreactivity”.
The value for “QVLLVESGGGLVQAGGSLRLSCAASRSIFEVNPMGWYRQAPGKERELVAAISCSGGSTYYADSVKGRFTISRDNAKNTVYLQMNSLKPEDTAVYYCAARQAGYSGRKLYYWGQGTQVTVSS” was “low polyreactivity”; that for “QVLLVESGGGLVQAGGSLRLSCAATARNFKYNTMGWYRQAPGKERELVAAISISGGSTYYADSVKGRFRISRDNSKNTVYLQMNSLKPEDTAVYYCNADTTYLSDYVTFAYWGQVTQVTVSS” was “low polyreactivity”; that for “QVLLVESGGGLVQAGGSLRLSCAATGSIFVGYVMGWYRQAPGKERELVAAISRSGGRTYYADSVKGRFTISRDNAKNTVYLQMNSLKPEDTAVYYCAVRHRFYTAGYDYWGQGTQVTVSS” was “low polyreactivity”.
For “QVLLVESGGGLVQAGGTLRLSCADSGFTFVTYGMGWYRQEPGKERELVARISSSSTNYADSVKGRFTISRDNAKNTVYLQMKSLKPEDTEVYYCAAVHYRWWYRSAYDFWGQGTQVTVSS” the value was “low polyreactivity”; for “QVLLVESGVGLVQAGGSLRLSCAASGRIFKLYAMGWYRQAPGKERELVAAITRRGGSTSYADSVKGRFTISRDNAKNTVYLQMNSLKPEDTAVYYCAASYTGRTVVQGYEYWGQGTQVTVSS”, “high polyreactivity”.
Take “QVLLVESGVGLVQAGGSLRLSCASSGFTFYRNAMGWYRQAPGKERELVASISRSGGSTYYADSVKGRFTISRDNAKNTVYLQMNSLKPEDTAVYYCAADLWWIYPHKYYYWGQGTQVTVSS”: the “polyreactivity (PSR sort gate)” value is recorded as “high polyreactivity”.
For “QVNLVESGGGLVQAGGSLRLSCAASGIIFIAYAMRWYRQAPGKERELVADISIGGSTNYADSVKGRFTISRDNAKNTVYLEMNSLKPEDTAVYYCNAGGGFYGSTVEHDYWGKGTQVTVSS” the value was “low polyreactivity”; for “QVPIVESGGGLVQAGGSLRLSCAAYGIIFRLNAMGWNTQAPGKERELVAAITRRGGTTYYADSVKGRFTISRDNAKNTVYLQMNSLKPEDTAVYYCNTFYYWQYDWGQGTQVTESS”, “high polyreactivity”; for “QVPLVESGGGLGQAGGSLRLSCGASGSIFSLYAMGWSRLAPGKEREVVASLTWRGDSTYYADSVTGRFTISRDNAKNTVYLQMNSLKPEDTAVYNCNAVYYYAEPTSFGGYDYWGQGTQVTVSS”, “low polyreactivity”.
For the sequence “QVPLVESGGGLLQAGGSLRISCAASGSIFTRNAMGWYRPAPGKERELVAAISRRGVSTYYADSVKGRFTISRDNAKNTVYLQMNSLKPEDTAVYYCTARSPMYRTTYDYWGQGTQVTVSS”, the “polyreactivity (PSR sort gate)” value is “high polyreactivity”.
For “QVPLVESGGGLVEAGGSLRLSCDASGGIFRGYAKGWYRQAPGKERDLVAAISRGGGSTYYADSVKGRFTISRDNAKNTVYLQLNSLKPEDTAVYYCAAIYTRVYDPVTEFYYWGQGTQVTVSS” the value was “high polyreactivity”; for “QVPLVESGGGLVLAGGSLRLSCAASGSTVDDNAMGWYRQAPGKVRELVAGISTNGGSTSYADSVKGRITISRDNAKNTVYLQMNSRKPEHTAVYYSAKGLYVQFDYWGQGTQVTVSS”, “low polyreactivity”; for “QVPLVESGGGLVQAGGSLRLSCAASGFTFFSHAMGWYSQAPGKDRELVAAITTNGGSTYYADSVKGRFTISRDNAKNTVYVQITSLKPEDTAVYYCAADYSLPWSWLYEYWGQGTQVTVSS”, “low polyreactivity”.
Regarding “QVPLVESGGGLVQAGGSLRLSCAASGFTFTPYGMGWYRPAPGKERELVAAITWNGGRTYYADSVKGRFTISRDNAKNTVYLQMNSLKPEDTAVYYCAAVAWSWQKRGYWGQGTQVTVSS”, the “polyreactivity (PSR sort gate)” value is given as “high polyreactivity”.
The value for “QVPLVESGGGLVQAGGSLRLSCAASGRIFGYYARGWYRQAPGKDRELVASIRRGTRTNYADSVKGRFTISRDNAKNTVYLQMNSLKPEDTAVYYGAATRFQFTTTPWYDYWGQGTQVTVSS” was “high polyreactivity”; that for “QVPLVESGGGLVQAGGSLRLSCAASGRIFSSYAMGWYRQAPGKERELVAAISSRGGSTYYADSVKGRFTISRDNAKNTVYLQMNSLKPEDTAVYYCARVKYSGVVYKYDYWGQGTQVTVSS” was “high polyreactivity”; that for “QVPLVESGGGLVQAGGSLRLSCAASGRTFGRYAMGWYRQTHGKERELVASISWRGGSTYYADSVKGRFTISRDYAKNTVFLQMNSLKPEDTAVYYCAVRFLTYWHGSYWYDYWGQGTQVTVSS” was “high polyreactivity”.
As to “QVPLVESGGGLVQAGGSLRLSCAASGRTFRPYALGWYRQAPGKERELVATISGGGSTYYADSVKGRFTISRDNAKNSLYLQLNSLKPEETAFYYCAKVLTYGGVSYISRMDYWGQATQVTVSS”, the “polyreactivity (PSR sort gate)” value is given as “low polyreactivity”.
As for “QVPLVESGGGLVQAGGSLRLSCAASGSTFRRYGMGWYREAPGKERELFAAISKGGTRTYYADSVKGRFTISRDNAKNTVYLQMNSLKPEDTAVYYCNKAWYAYGPVYASWYGEYDYWGLGTQVTVSS”, the “polyreactivity (PSR sort gate)” value is recorded as “high polyreactivity”.
For “QVPLVESGGGLVQAGGSLRLSCAASGSTLAGYTMGWYRQAPGKERELVAAITWSGSSTYYADSVKGRFTISRDNAKNTVYLQMNSLKPEDTAVYYCAATYYVYSGGNYLRYDSWGQGTQVTVSS” the value was “high polyreactivity”; for “QVPLVESGGGLVQAGGSLRLSCAASGSTQNRYAMGWYRQAPGKEREFVAAITWRGGSTYADSVKGRFTISRDNAKTTVYLQMYSLKPEDTAVYYCAAQGYKQRVHYDYWGQGNQVTVSS”, “high polyreactivity”; for “QVPLVESGGGLVQAGGSLRLSCAASGYIFEKYAMGWYRHAPGKERELVAAITVTGASTYYADSVKGRFTSSRDNAKNTVYLQMNSLKPEDTAVYYGAAKTLSVGYVDPDYGRDYWGQGTQLTVSS”, “low polyreactivity”.
The value for “QVPLVESGGGVVQAGGSLRLSCAASGRTYRWNVMGWYRQAPGKERELVATISRRSGSTNYADSVKGRFTISRDNAKNTVYLQINSLKPEDTAVYYCNTDTYFPLYDYWGQGTQVTVSS” was “low polyreactivity”; that for “QVPRVESGGGLVQAGGSLRLSCAASGFTFRFYDMGWYRQARGNERELVAAISWSGTSTYYADSVKGRFTISRDNAKNTVYLQMNSLKPEETAVYYCAADIIGYEFDYWGQGTQVTVSS” was “high polyreactivity”.
On to “QVQFVDSGAGLVQAGGSLRLSCAASGSTLTTNAMGWYRQAPGKERELVAAISWRGGPTYYADSVKGRFTISRDIAKNTVYLQMNSLKPEDTAVYYCAADYTRSAYDYWGQGTQVTVSS”, for which the “polyreactivity (PSR sort gate)” value was “high polyreactivity”.
The value for “QVQHEDSGGGLVQAGGSLRLSCAASGRIFSFYTMGWYRQAPGKERELVAAISGSGGSTYYADSVKGRFTISRDNAKNTVYLQMNSLKPEDTAVYYCARRRQRGGVNYWGQGTQVTVSS” was “high polyreactivity”.
For “QVQHEESGGGLDQPGGSLRLTCAASGRIFNGYKMGWYRKAPGKETEFVDTISRSGGSTYYADSVKGRFTISRDNAKNSVYLQMNSLKPEDTAVYYCAKSYPDKWEYDYWGQGTQVTVSS” the value was “low polyreactivity”.
For “QVQHEESGGGLVQAGGSLRLSCAASGIIFYYYALGWYRQAPGKERELVAAITGTGSRTYYADSVKGRFTISRDNAKNTVYLQMNSLKPEDTAVYYCNARSFATGSKVPARGYWGHGTQVTVSS” the value was “high polyreactivity”; for “QVQHEESGRALVQAGGSLRLSCPPSGTTGIYAIGWYRQAPGKERELVAAITRRAGSTYYADSVKGRFTISRDNAKNRVYLLMTSLKPEDTAVYDCNATRGTATAYYYRWAGGYWGQGTQVTVSS”, “low polyreactivity”.
In the case of “QVQHEESGRGLVQAGGSLRLSCAASGINCVYYAMGCYRQAPGKERELVAAISKNGGSTYYADSVKGRFTISRDNAYNTVYLQMNSLKPEDTAVYYCAAEEGYRWVRYNYWGQGTQVTVSS”, the “polyreactivity (PSR sort gate)” value is “high polyreactivity”.
For “QVQHLESGGGLVQAGGSLRLSCVASGLTQPYAMRWYRQAPGKERQLVAAITGGDGSTTYADSVKGRFTISRVNAKNTVYLQMNSLKPEDTAVYYCNADTARKYAESQFYHWGQGTQVSVSS” the value was “low polyreactivity”.
